Experimental data as given in paper PMC5548801, “Characterization of C-terminal structure of MinC and its implication in evolution of bacterial cell division” (Scientific Reports, 2017).
Blank lines part the entries; values can stand above or below the molecule they belong to.

Columns and labels:
[1] = target: MBP-EcMinC-Aahelix3 (E. coli | A. aeolicus) (UniProt P18196); assay: SEC-MALS; MALLS and SEC (Fig. S4)
[2] = target: the molecule itself; assay: SEC-MALS; MALLS and SEC (Fig. S4)
[3] = target: the molecule itself; assay: crystal structure; hanging-drop vapor diffusion at 20 °C, 0.1 M Tris-HCl pH 7.2, 0.44 M sodium/potassium tartrate; 3.0 Å; dimer in the asymmetric unit

stoichiometry N [1]: 2
Molecule: MBP-EcMinC-Aahelix3 (from UniProt P18196 1-231; O67034 82-201)

B1: MBP-EcMinC (natural protein, E. coli, UniProt P18196 1-231, looked up)
chain: MSNTPIELKGSSFTLSVVHLHEAEPKVIHQALEDKIAQAPAFLKHAPVVLNVSALEDPVNWSAMHKAVSATGLRVIGVSGCKDAQLKAEIEKMGLPILTEGKEKAPRPAPTPQAPAQNTTPVTKTRLIDTPVRSGQRIYAPQCDLIVTSHVSAGAELIADGNIHVYGMMRGRALAGASGDRETQIFCTNLMAELVSIAGEYWLSDQIPAEFYGKAARLQLVENALTVQPLN
notes: called full-length EcMinC; Modified pET-28b with MBP in place of the N-terminal His-tag; source: E. coli BL21(DE3), purified (Ni-agarose, SEC); not shown: MBP, N-terminal, kept
stoichiometry N [2]: 2

B2: C-terminal domain of MinC from Escherichia coli (EcMinCCTD) (domain or fragment, E. coli)
chain: PVTKTRLIDTPVRSGQRIYAPQCDLIVTSHVSAGAELIADGNIHVYGMMRGRALAGASGDRETQIFCTNLMAELVSIAGEYWLSDQIPAEFYGKAARLQLVENALTVQPLN
notes: MinC, E. coli K12; C-terminal domain, a degradation fragment of ~13 kD of full-length MinC-6xHis; residues 122-231 are named for the superposition with TmMinCCTD; Crystals grew from full-length MinC-6xHis (pET22b-MinC) that was degraded over 3-6 weeks; source: E. coli BL21(DE3), full-length MinC-6xHis purified (Ni-agarose, SEC); degraded to the C-terminal domain during crystallization; not shown: …
binding result [3]: binds
